Assay results as given in patent US20240026407A1, “MODIFICATION OF SAPONINS” (GLAXOSMITHKLINE BIOLOGICALS SA, priority 2020, published 2024).

B1: 816 (protein)
chain: MTASTDHLRPLLEKLSLEQKAALVQGADFWTTVPLPEIGLRALTLSDGPAGVRGPRWDEREPSLNLPSGSALAASWDVDLAYRYGAAAASEARRKGVDVVLGPTINLHRSPLGGRHFECLSEDPELTAELGAAYVRGMQENGVAATPKHYVANDSETDRFTVDVEVDERTLREVYLAPFERAVEAGAWSVMSAYNSVDGVTMTENDLLENPLNSEWGFDGVVVSDWTAVRSLDAVAAAQDLAMPGPAPAWADLVDAVHDGRVDEADIDRKVLRILLLAERVGALEGADAVAPAPLDGPAFAKEAAVEGTVLLQNSGVLPLDLAGLTKVAIIGHNAKDARTQGGGSATVLPEKVVSPLDAIRAALPAAEVSYEIGAVVQEGVAEIPLASIENPVTGGPGVRVSFHGADGTELFAEDRRATALVWFGGDAPIGASRTIVLETRYTPAESGEIQLGFAGANPGRIFVDGELVLDDVPVIEGTDLGAAFLNPPSITSAVTVEAGRAVDLRAEFTRESRGALDGALSVTLGIAPERTDPDELIARAAAAASAAEVAVVVVGTNSKVESEGYDRVDLDLPGRQDDLVRAVAATGTPTVVVVNAGSPVVLPWAGEVAAIVQGYFGGQEFGHAIAEVLTGAAEPGGRLPTTWPAALADVPVADVTPVDGRLVYAEGLHIGYRAWLKDDVQPAFPFGHGLGYTTWSWGTAQRHDDTVEVTLANTGEREGKQVVQVYAERADSTVDRPARWLVGFAVVHAEPGRTVTAVVPVPARRLAHWAGEWVVEPGAYTLRVGSSVADLPLSVEWVQA
modifications: Microbacterium hydrocarbonoxydans
B2: 827 (protein, listed as Bionectria ochroleuca)
chain: MAPTDVNAVLSKLTLEEKISILAGADFWQTVPIPEKGVPALKTSDGPNGARGETFSGGVTAACFPAACSVASTFDVDIARRIGVALGEETLTKGARCLLGPTICGHRHPLGGRNFESFSEDPFLAGTLASQSVQGIQSTGVAATMKHYAVNEQETERLSVDEIVDERTMREIYLRPFERVVKEAKPAAVMTGYNQVNGSHCDSHEFLLKQVLRGEWGWDGLVMSDWGGVNSVAESLNAGLDLEMPGPTRWRKVDEVVAAVKAGKVSEETINDRAIHVLRFLERQNCFKDPTIPPEQAVNKPEHQALIREAGSKGIVLLKNNDNVLPLTKEKARGKKIALLGLAKESLAHGGGSASLNAHYKITPWDALQEAYKGENVEFTYAKGAHTLRQLPVITKNVVDVDGKPGFTWRSYHVGESQPYNTVGGHAKSEISLLDGLNMVNTSIELEGTFTASESATYYFTLSGLGPSSVAINGTVVFEQEDNCSDPMGFLLGGVASPLVKYEFESGKQYKILLKSTPPAPVEGVDLGILEGKVGVRLGNMSASEHDKDILTEAIDLAKAADYAIVFTGHDPSWETEGQDQHSFNLPKDGSQDRLVSGVAAVNQNTIVVNSTGVAVAMPWLDEIKSLVHTWFPGQEAGNSIADVLTGERNPEGHLTCTFPKRLEDCPAYGNFPGEYNGRQLTVKYAEGVFVGYRHFDRLPAEKVNFPFGFGLSYTTFGFSDFDVKPTAAGDEWTASVKVTNTGSVKGAIAVQLYVGNSKTSPENPVKSLVSFKKVTLAAGGSAVVELPAQGRDIAFWSQQEHKWVLEAGEYNFSVGKSAGDLVATATVQVGGKTYAP
B3: 891 (protein, listed as Pseudarthrobacter chlorophenolicus)
chain: MNPTLPAAATVPAVGSPDAEARIRDLAESLTLEQQVQLLTGADVWSTHALPAIGLSRVVMSDGPAGVRGEDFDERHDSVSLPSSSALSATWSVDLARRYGQVLGQEARRKGVHAVLGPTINLHRSPLGGRHFECMSEDPRLTATIAAGYVAGVQSMGVGATPKHYLANEAETDRFTSDSVVDERPLRELYLAAFEDAVTEARAWLVMSSYNSINGTTASENDLLETPLSTEWGFDGVVVSDWTGVRSVDAANAHQDLEMPGPVGHWGPKLLAAVGDGRVSRTAILDKVVRILRLAARVGSLDGVSPAVTELPAPLNAPAVAREVAVRGAVLVRNKDGLLPLDPAALGSVAVSGHNAEEARTQGGGSATVMPKQNISPLEGLREALPANVAISYHRGAKVAEGLQAFPRTSLHNPVSNVPGLRVTFLAADGTELSGEDRLASHLIWFGIGIPEGAAAIRMETDWTAPSAGTHHLGLGTVGRIRLSLRGQEVFNGDIEDETEVLGAALFDPPKTVHAIETEAGERVRIEALFELPADQAIPFTAILLGEETVVADPQAEIDAAVEAARTADVAVVVVGTSAAIESEGFDRKDLDLPGHQNRLVEAVAAANPRTVVVVNSGSPVLMPWLDKVGAVLLGWFGGQEFGRAIADILLGAEEPGGRLPTTWPAALEDVPVLDTTPMDGKVVYSEGIHVGYRAWLKQQAAGGAAPALPFGYGLGYTTFELCTPHASQAVPAGKDVVVHVPVRNTGTRAGREVVQVYLERPESAVERPVRWLAGYAGTHLAAGGTSSVEVRIPGRAFAHYDGGWQVEPGTFRILVGRHSADGFQALDIDVR
B4: 888 (protein)
chain: MTESVAHLRPLLDALTLEQKAALVQGADFWTTVPLPEIGLRAMTLSDGPSGVRGPRWDEREPSLNLPSGSALAASWDVDLAYRYGAAAASEARRKGVDVVLGPTINLHRSPLGGRHFECFSEDPELTAELAAAYVRGMQDNGVAATPKHYVANDSETDRFTVDVDVDDRALRELYLAPFERAVEAGAWSVMSAYNAVDGVTMTENDLLETPLNSEWGFDGVVVSDWTAVRSLDAVAAAQDLAMPGPAPAWADLLAAVRDGRVQEADLDRKVLRLLLLAERVGALEGSTALEPAPVDAEAFAREAGIEGTVLLRNTGALPLDVAAIRSIAVIGHNARDARTQGGGSATVLPERTVSPLDGLREALPEADLRYEIGAVVQEGVAEIPVAQLRNPETGEPGLRVRFLDEDGAELFSEDRRSTALVWFGGDAPVAASSRVVFETVFTPAETGEIQLGFAGANPGRLYVDDRLVLDDTPVIEGTDLGAAFLNPPSLTAGVSVEQDTPIRVRVEFTLARGGALAGALSATVGIAPEATDPEALIARAVEAAAAADVAVVVVGTNSKVESEGYDRIDLDLPGRQDDLVRAVAATGTPVVVVVNAGSPVVLPWADEVSAIVQGYFGGQEFGHALADVLTGAAEPGGRLPTTWPATLADVPVQDVTPQDGVLTYGEGIHVGYRAWLKDAATPAFPFGHGLGYTTWSWGAAHRHGDAVDVTVRNTGDRAGKQVVQVYAERGDSSVDRPVRWLVGFATVHAEPGETVTATVPVPGRRLAHWADGWVVEPGAYTLRAGASVDDLPLALEWTVAE
modifications: uncultured Microbacterium sp.
B5: 881 (protein, listed as Treponema azotonutricium)
chain: MTSKEIIPQMTLEEKAALCSGRDFWSLKGIERFGLEAIMVTDGPHGLRKQGGDGDHLGLNQSVPATCFPAACATACSFDRSLLEEIGAAMGEECRKEKVAVLLGPAANIKRSPLCGRNFEYISEDPFLTGEIAAALIKGVQKLGVGTSLKHYAVNNQEKRRMTINAVVDERAFREIYLAGFEKAVREAKPWTLMCSYNKINGTYASENKKLLTDILRDEWAYQGLVMTDWGASNNRLEGIKAGLDLQMPGPDADNDKRIIEAVKSGALSIEDLDKVVARVVDLIIKAGEGDSIGFACDMEAHHLLARRAAAESAVLLKNDENILPLVPGKTLAVIGAFAISPRYQGAGSSKINPSHLDKAFDAIMRTGIKAEYAPGYSLEAGSGVNEKLIAEAAKLAGEKDSAVVFAGLPDEYESEGFDRASMDMSESHNKLIEAVAKANPNTVVVLQLGSPVALPWADKVKGILLLYLSGQAGGGAAADLLTGNACPGGKLAETWPLALEDNPSYGNFPGSTKTVEYRESIFAGYRWYDALEKEVRYPFGFGLSYTSFEYSDLKLGTSAEAKDNFKKGDALKVSFTVKNTGSREGSETAQLYIAPDASVLFRAKKELKGFEKLHLKPGESKTVTLILDERSFAYYNVQAKDWSLEGGLYRILIGASSRDIRLEGKLELTGDKRETAFAFLKGGRPVFDDASFKAIYGAELPPKERLPGEPFTVNTSVEEIKDTPIGKALFGMAVQGLEQAFGKEKSDLKVMMESMLMDMPLRGLGMMSGGRLTPPVIEALVEALNGKPNPIASGLLGMK

Key:
Assay type in all cases: biochemical, Quillaja saponaria
[1] = Experiment 5-2: screening of additional glucosidases for deglycosylation with QS-18 in crude bark extract (80%) at pH 6 and 35 deg C; settings: CBE 80%, pH 6, 35 deg C, 18 hours; UV HPLC
Procedure: A plate was lysed at pH 6 as described in Experiment 4-2. 40 uL of clarified lysate was transferred to a reaction plate
The pH of CBE was adjusted to pH 6 by dropwise addition of 2M NaOH with stirring. 160 uL of pH 6 CBE was added to each well of the reaction plate. The reaction plate was sealed and incubated at 35 deg C. with shaking for 18 hours.
The reaction plate was quenched by adding 200 uL of MeCN (2% acetic acid (AcOH), 1 mg/mL hexanophenone) to each well of the plates. The quenched reaction plate was re-sealed and incubated at 20 deg C. with shaking for 10 min. The reaction plate was then centrifuged (10 min, 4 degC).
200 uL was transferred from each well of the quenched plate to the corresponding wells of a fresh 96 well plate and sealed. The plate was analysed by UV HPLC with the method of Experiment 4-4.

[2] = Experiment 5-1: screening of additional glucosidases for deglycosylation with purified QS-18 (0.04 mg/ml) at pH 7.5 and 30 deg C; settings: pH 7.5, 30 degrees C, 18 hours, LCMS/MS
Procedure: The 94 additional genes, together with positive control (DNA encoding SEQ ID No. 262) and negative control, were transformed, expressed, lysed and reacted in the same manner as described above for Experiment 4-1, except the reaction was incubated at 30 degrees C. for 18 hours.
Samples were analysed by LCMS/MS according to the procedure in Experiment 4-1.

[3] = Experiment 5-3: screening of additional glucosidases for deglycosylation with QS-18 in treated bark extract (80%) at pH 6 and 35 deg C; settings: TBE 80% (QS-21 approx. 4 g/L), pH 6, 35 deg C; UV HPLC
Procedure: Experiment 5-1 was repeated, replacing CBE with Treated Bark Extract (TBE) at pH 6. TBE was prepared from CBE by PVPP treatment and concentration, to provide TBE with a QS-21 concentration of approximately 4 g/L. TBE was adjusted to pH 6 by dropwise addition of 2M NaOH with stirring.

Molecule	Experiment 5-2 % conv [1] [%]	Experiment 5-1 % conv [2] [%]	Experiment 5-3 % conv [3] [%]
B1	<0.5	73.5	<0.5
B2	<0.5	69.2	<0.5
B3	<0.5	74.7	<0.5
B4	<0.5	78.0	<0.5
B5	<0.5	77.5	<0.5
